Experimental data: US9526713B2, “Use of dencichine in preparation of drug for treating thrombocytopenia” (KUNMING SHENGHUO PHARMACEUTICAL (GROUP) CO., LTD., priority 2013, dated 2016)
Like-named read-outs stand apart in the source and are kept apart here.

Legend:
[1] = test system: female mouse; settings: Zhao Guoqiang et al., 1984; cited from earlier work
[2] = test system: ITP model mice; format: in vivo, BALB/C mice; settings: 5 mg/kg intragastric
Description: (§1) Health BALB/C mice (body weight 18˜22 g) are randomly divided into six groups with 12 mice for each group:
(§2) Except the normal group, the mice of the remain five groups are injected with anti-mouse platelet serum (APS) of the guinea pig with a dose of 100 μl/20 g body weight, via intraperitoneal injection, on the 1st, 3rd, 5th, 7th, 9th, 11th and 13th day of the experiment.
(§3) The mice of each group are given intragastric administration from the first day. The mice of the dencichine high dose, middle-dose and low dose groups are given intragastric administration at 1.5 mg/kg, 3 mg/kg, and 6 mg/kg respectively. The mice of the prednisone acetate group are given intragastric administration of suspension of prednisone acetate at 5 mg/(kg·d). The mice of other groups are given intragastric administration of same volumetric of normal saline at 0.2 ml/20 g body weight. Intragastric administration for once each day, and continuous administration for 14 days.
20 μl Blood was collected from orbital veins of each mouse of each group before Modeling and on 14th test day respectively, and dropped into anticoagulative tubes, then platelet count was detected by an automated blood analyzers.

[3] = test system: ITP model mice; format: in vivo, BALB/C mice; settings: 5 mg/(kg·d) intragastric, 14 days; end of experiment
Text: as §1
Blank group, Model group, Prednisone Acetate Group, Dencichine (high dose, middle dose, and low dose) groups.
Modeling method: blood was taken from orbital vein of BALB/C Mice, followed by EDTA-Na2 Anticoagulation, and then platelets are separated and washed. The prepared platelet suspension solution was mixed uniformly with equal amount of complete Freund's adjuvant and incomplete Freund's adjuvant respectively. In the first week, antigen containing complete Freund's adjuvant is subcutaneously injected into hind paw, back and groin of the guinea pig. Injections are done for 4 times in total, with 5 spots for each injection and 100 μl for each spot. In the 6th week, non-anticoagulated whole blood was taken from the guinea pigs, and was centrifuged for 10 min under 3000 r/min to produce a supernate, which is the anti-mouse platelet serum (GP-APS) of the guinea pigs. The supernate was placed in a water bath (56° C.) for 30 min for complement inactivation, and then the inactivated supernate was diluted with normal saline, followed by test of antibody titers by agar diffusion method, and finally was stored in a refrigerator at −20° C. for later use.
as §2
as §3, with “The mice of the dencichine high dose, middle-dose and low dose groups are given intragastric administration at 1.5 mg/kg, 3 mg/kg, and 6 mg/kg respectively.” left out
Observation of the Subcutaneous Purpura:
Class I, minor bleeding are found at injection sites, and hemorrhagic spots are interspersed at other sites;
Class II, overt bleeding are found at injection sites, and ecchymosis and petechiae are found at other sites;

[4] = format: in vivo, BALB/C mice; settings: 5 mg/(kg·d) intragastric
Description: as §1, §2
as §3, with “The mice of the dencichine high dose, middle-dose and low dose groups are given intragastric administration at 1.5 mg/kg, 3 mg/kg, and 6 mg/kg respectively.” left out
The weights of mice of each group are respectively measured before modeling, on 7th test day, and on 14th test day.

[5] = test system: rats suffering thrombopenia induced by carboplatin; test: Platelet count of rats suffering thrombopenia induced by multiple injections of carboplatin; format: in vivo, Wistar rats; settings: 260 μg/kg s.c., carboplatin model
Description: (§4) 81 rats are prepared and randomly divided into eight groups: • blank control group, • high-dose group A (4 mg/kg, intraperitoneal injection, non modeling), • model group (40 mg/kg, tail vein injection), • interleukin-11 group (260 μg/kg, subcutaneous injection), • high dose group B (4 mg/kg, intraperitoneal injection, modeling), • high dose group (4 mg/kg, intraperitoneal injection), • middle dose group (1 mg/kg, intraperitoneal injection), and • low dose group (0.25 mg/kg, intraperitoneal injection),
(§5) wherein, the Model group has 11 rats, and the other groups has 10 rats respectively. Before the experiment, the animals are asked to adapt the environment for 2 days, and then blood is taken from their tails for detecting hematological index.
(§6) After administration for 10 days, blood is taken from tails of rats from blank control group, high-dose group A, and positive drug group respectively for detecting hematological index.
(§7) Thereafter, all animals, except for those of blank group and high-dose group A, are individually injected with carboplatin (40 mg/kg) for modeling, and followed by successive administration for 15 days. During these 15 days, the rats of high-dose group A and high dose group B are stopped from administration, and taken blood from the tail on 5th day, 10th day and 15th day after the modeling respectively for detecting hematological indices. After 15th day of modeling, carboplatin (40 mg/kg) is injected again for a second modeling, and all the groups take successive administration according to the foregoing method, once a day for successive 10 days. Before each hematological indices detection, animals are weighed respectively. Taking the tails' blood of rats on 5th day after the second injection of carboplatin for detecting hematological indices, and taking the tails' blood of rats on 10th day after the second injection of carboplatin for detecting the indices of hematology, reticulocytes and coagulation; and weighing animals and killing them; and weighing liver, thymus, spleen and adrenal gland taken from the dead rats, and calculating out viscera indices; further taking out marrow for doing pathological examination.

[6] = test system: rats with thrombocytopenia caused by carboplatin; test: Platelet count of rats with thrombocytopenia caused by carboplatin, different prophylactic administration time; format: in vivo, rat
[7] = Organ index of rats suffering thrombopenia induced by carboplatin; format: in vivo, Wistar rats
Description: as §4, §7

[8] = Body weight of rats suffering thrombopenia induced by carboplatin; format: in vivo, Wistar rats; settings: for body weight: 260 μg/kg s.c., carboplatin model
Description: as §4, §5, §6, §7

[9] = 5th day after first injection of carboplatin
[10] = 5th day after second injection of carboplatin
[11] = 10th day after first injection of carboplatin
[12] = 10th day after second injection of carboplatin
[13] = 15th day after first injection of carboplatin
[14] = prophylactic administration for 10 days
[15] = 260 μg/kg s.c., carboplatin model

N[C@H](CNC(=O)C(=O)O)C(=O)O [β-N-oxalyl-D-α, β-diaminopropionic acid, reference compound]
effect on the hemostasis and increase of platelet count [1]: significant effect

CC(=O)OCC(=O)[C@@]1(O)CC[C@H]2[C@@H]3CCC4=CC(=O)C=C[C@]4(C)[C@H]3C(=O)C[C@@]21C [Prednisone acetate, Prednisone Acetate, reference compound]
platelet count ([2]; Before Modeling): 756.9 ± 130.1 ×10^9/L
platelet count ([2]; Day 14): 579.0 ± 70.7 ×10^9/L
Subcutaneous purpura, bleeding degree + [3]: 6 number of mice
Subcutaneous purpura, bleeding degree ++ [3]: 2 number of mice
Subcutaneous purpura, bleeding degree +++ [3]: 0 number of mice
Subcutaneous purpura, bleeding degree − [3]: 0 number of mice
body weight ([4]; Day 0): 19.8 ± 2.1 g
body weight ([4]; Day 7): 19.5 ± 1.8 g
body weight ([4]; Day 14): 20.6 ± 1.7 g

B1: Interleukin-11: Recombinant human interleukin-11 for injection, sterile lyophilized preparation, Qilu Pharmaceutical; positive drug (protein, UniProt P20809 22-199, looked up)
Interleukin-11: PGPPPGPPRVSPDPRAELDSTVLLTRSLLADTRQLAAQLRDKFPADGDHNLDSLPTLAMSAGALGALQLPGVLTRLRADLLSYLRHVQWLRRAGGSSLKTLEPELGTLQARLDRLLRRLQLLMSRLALPQPPPDPPAPPLAPPSSAWGGIRAAHAILGGLHLTLDWAVRGLLLLKTRL
platelet count [5, 9]: 564.0 ± 126.1 ×10^9/L
platelet count [5, 10]: 953.7 ± 265.8 ×10^9/L
platelet count [5, 11]: 234.6 ± 77.9 ×10^9/L
platelet count [5, 12]: 290.7 ± 180.9 ×10^9/L
platelet count [5, 13]: 1183.3 ± 92.5 ×10^9/L
platelet count ([5]; before experiment): 625.4 ± 124.92 ×10^9/L
platelet count [5, 14]: 761.6 ± 226.76 ×10^9/L
platelet count compared with that of model group ([6]; prophylactic administration for 3 days): no significant difference
platelet count ([6]; prophylactic administration for 3 days, after prophylactic administration): 820.7 ± 155.13 ×10^9/L
platelet count ([6]; prophylactic administration for 3 days, initial value): 736.3 ± 175.56 ×10^9/L
platelet count ([6]; prophylactic administration for 3 days, injection of carboplatin for 10 days): 88.5 ± 51.49 ×10^9/L
platelet count compared with that of model group ([6]; prophylactic administration for 5 days and 7 days): increase the platelet count
platelet count ([6]; prophylactic administration for 5 days, after prophylactic administration): 759.5 ± 145.34 ×10^9/L
platelet count ([6]; prophylactic administration for 5 days, initial value): 724.0 ± 178.87 ×10^9/L
platelet count ([6]; prophylactic administration for 5 days, injection of carboplatin for 10 days): 178.3 ± 57.08 ×10^9/L
platelet count ([6]; prophylactic administration for 7 days, after prophylactic administration): 860.5 ± 113.92 ×10^9/L
platelet count ([6]; prophylactic administration for 7 days, initial value): 732.3 ± 197.06 ×10^9/L
platelet count ([6]; prophylactic administration for 7 days, injection of carboplatin for 10 days): 179.5 ± 26.76 ×10^9/L
organ index, Adrenal gland [7, 15]: 0.04 ± 0.01 g/100 g body weight
organ index, Liver [7, 15]: 4.10 ± 0.30 g/100 g body weight
organ index, Spleen [7, 15]: 0.39 ± 0.05 g/100 g body weight
organ index, Thymus gland [7, 15]: 0.14 ± 0.05 g/100 g body weight
index of livers, spleens, suprarenal glands compared with the blank control group ([7]; interleukin-11 group): obvious increases
body weight [8, 9]: 267.6 ± 41.79 g
body weight [8, 10]: 294.6 ± 47.61 g
body weight [8, 11]: 287.1 ± 41.57 g
body weight [8, 12]: 291.7 ± 52.46 g
body weight [8, 13]: 298.3 ± 44.22 g
body weight ([8]; before experiment): 186.7 ± 9.63 g
body weight [8, 14]: 268.8 ± 32.65 g
body weight and state ([8]; 280 μg/kg subcutaneous injection, beginning of the experiment): obvious body weight loss
